The text below walks through data of patent publication CN111662385A.

Broadly, the Kd is the constant that tells how readily two partners part at equilibrium. In general, koff refers to the rate constant with which the complex falls apart. Broadly, the kon is a measure of how fast the partners come together.

For the test, the target named is human GPC3 recombinant protein (human) (UniProt P51654). The test can be described thus: BLI (ForteBio), antibody 5 ug/ml on anti-human IgG Fc sensor, GPC3 62.5-1000 nM. Background: Biolayer interferometry detects binding as a change in optical thickness at a sensor tip.

As to hGC33(Codrituzumab) (antibody), the equilibrium dissociation constant (Kd) was 1.74 nM, the koff stood at 0.00024 s⁻¹ and the on-rate constant (kon) was 141000 M⁻¹ s⁻¹.
